# Article PMC5449658
# What was measured:
# [1] = biological target: H6-TacT^WT toxin (Gcn5-related N-acetyltransferase TacT) (Salmonella enterica subsp. enterica serovar Typhimurium LT2) (UniProt Q8ZL98); test: SEC
# [2] = biological target: TacAT^WT complex (one H6-TacT with one TacA) (Salmonella enterica subsp. enterica serovar Typhimurium LT2) (UniProt Q8ZL98); test: SEC; Superose 12 10/300 GL; 50 mM HEPES pH 7.0 at 4°C, 150 mM NaCl, 20% glycerol; co-purified TacAT complexes applied; molecular weight from a standard curve of gel filtration standards
# Sequence of UniProt Q8ZL98 (Q8ZL98 whole entry): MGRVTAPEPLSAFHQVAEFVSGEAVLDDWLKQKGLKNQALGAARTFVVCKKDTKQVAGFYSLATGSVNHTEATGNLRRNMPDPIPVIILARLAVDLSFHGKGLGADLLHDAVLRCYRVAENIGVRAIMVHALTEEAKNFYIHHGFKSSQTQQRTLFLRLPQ
Substance,stoichiometry N [1],stoichiometry N [2]
TacA^WT antitoxin (tagless native TacA) (natural protein),1,
TacAT^WT complex (one H6-TacT with one TacA) (from UniProt Q8ZL98 1-161),,2
